What was measured:
[1] = molecular target: T1, human IL-25 expressed with a C-terminal myc-myc-hexahistidine tag (human); experiment: BLI Octet, hIL-25-MMH captured on anti-Penta-His sensor, 25C
T1 construct: also called hIL-25-MMH; Human IL-25-MMH
T1 chain: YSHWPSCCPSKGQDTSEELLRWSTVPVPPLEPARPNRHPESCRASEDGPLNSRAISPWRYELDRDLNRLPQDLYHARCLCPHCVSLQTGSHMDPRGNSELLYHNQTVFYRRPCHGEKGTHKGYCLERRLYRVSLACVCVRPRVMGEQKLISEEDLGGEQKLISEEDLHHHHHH
Procedure: Binding competition between anti-IL-25 monoclonal antibodies was determined using a real time, label-free bio-layer interferometry assay on an Octet QK384 biosensor (Pall ForteBio Corp.).
The biosensors were washed in HBST kinetics buffer in between every step of the experiment. The real-time binding response was monitored during the course of the experiment and the binding response at the end of every step was recorded.

[2] = molecular target: T2, monkey IL-25 expressed with a C-terminal myc-myc-hexahistidine tag (M. fascicularis (cynomolgus monkey)); experiment: cell-based or functional assay
T2 chain: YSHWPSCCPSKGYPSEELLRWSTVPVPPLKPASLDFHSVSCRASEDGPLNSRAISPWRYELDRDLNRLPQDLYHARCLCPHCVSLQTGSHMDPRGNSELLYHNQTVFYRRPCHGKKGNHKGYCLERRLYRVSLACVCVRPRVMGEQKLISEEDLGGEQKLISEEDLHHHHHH

[3] = molecular target: T1, human IL-25 expressed with a C-terminal …; experiment: cell-based or functional assay
[4] = molecular target: T3, mouse IL-25 expressed with a C-terminal myc-myc-hexahistidine tag (mouse); experiment: SPR Biacore, antibody captured, 37C;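 note: Real-time sensorgrams of IL-25-MMH binding to purified anti-IL-25 antibodies, rate constants obtained by fitting a 1:1 binding model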
T3 construct: also called Mouse IL-25-MMH; mIL-25-MMH
T3 chain: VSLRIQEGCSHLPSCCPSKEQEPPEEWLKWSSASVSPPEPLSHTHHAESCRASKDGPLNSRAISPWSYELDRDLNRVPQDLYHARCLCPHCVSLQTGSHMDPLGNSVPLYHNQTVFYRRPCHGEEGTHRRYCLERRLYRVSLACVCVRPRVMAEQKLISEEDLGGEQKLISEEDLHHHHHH
Procedure: (§1) Equilibrium dissociation constants (KD values) for IL-25 binding to purified anti-IL-25 antibodies were determined using a real-time surface plasmon resonance biosensor assay on a Biacore 4000 instrument (GE Healthcare). […] All the IL-25 reagents were expressed with a C-terminal myc-myc-hexahistidine tag (referred to herein as “IL-25-MMH”). […] Kinetic association (kₐ) and dissociation (kd) rate constants were determined by fitting the real-time sensorgrams to a 1:1 binding model using Scrubber 2.0c curve fitting software.

[5] = molecular target: T4, rat IL-25 expressed with a C-terminal myc-myc-hexahistidine tag (rat); experiment: SPR Biacore, antibody captured, 37C
T4 construct: also called Rat IL-25-MMH
T4 chain: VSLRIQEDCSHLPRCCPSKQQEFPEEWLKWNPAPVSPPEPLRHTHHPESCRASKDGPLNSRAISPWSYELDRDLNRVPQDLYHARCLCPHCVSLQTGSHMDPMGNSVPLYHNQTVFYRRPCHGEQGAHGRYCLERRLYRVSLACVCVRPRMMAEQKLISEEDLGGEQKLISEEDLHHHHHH

[6] = molecular target: T4, rat IL-25 expressed with a C-terminal …; experiment: SPR Biacore, antibody captured, 25C;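 for 100 nM Rat IL-25-MMH Bound (RU): purified anti-IL-25 antibodies were tested by real-time surface plasmon resonance on a Biacore 4000, with rate constants obtained from sensorgram fits to a 1:1 binding model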
Procedure: as §1

[7] = molecular target: T1, human IL-25 expressed with a C-terminal …; experiment: competition ELISA, 2 nM hIL-25-MMH binding to coated hIL-17RB-hFc; (*) below theoretical bottom of the assay
Procedure: (§2) Data analysis was performed using a sigmoidal dose-response model within Prism™ software (GraphPad). […] The absorbance values of the wells containing the highest concentration for each antibody were used to determine the percent maximum blockade.

[8] = molecular target: T3, mouse IL-25 expressed with a C-terminal …; experiment: SPR Biacore, antibody captured, 25C;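 for 100 nM Rat IL-25-MMH Bound (RU): purified anti-IL-25 antibodies were tested by real-time surface plasmon resonance on a Biacore 4000, with rate constants obtained from sensorgram fits to a 1:1 binding model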
Procedure: as §1

[9] = molecular target: T2, monkey IL-25 expressed with a …; experiment: SPR Biacore, antibody captured, 37C;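 note: biacore 4000 surface plasmon resonance biosensor measuring binding of IL-25-MMH to purified anti-IL-25 antibodies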
Procedure: as §1

[10] = molecular target: T1, human IL-25 expressed with a C-terminal …; experiment: competition ELISA, 2 nM hIL-25-MMH binding to coated hIL-17RB-hFc
Procedure: as §2

B1: H4H10883P (antibody, human IgG4, V domains shown)
VH: QVQLQESGPGLVKSSETLSLTCTVSGGSISSYYWSWIRQPPGKGLEWIGFIYYSGSTNYNPSLKSRVTFSVDTSKNHFSLKLNSVTATDTAVYYCARHYFDSGTYELGPFDYWGQGTLVTVSS
VL: DIVMTQSPDSLAVSLGERATINCKSSQNILLTSSNKNYLTWYQQKPGQPPKLLIYWASIRESGVPDRFSGSGSGTDFTLTISSLQAEDVALYFCQQYYITPFTFGPGTKVDIK
notes: H4H prefix = human IgG4 Fc
- 50 ug/mL mAb-1 Binding (nm) [1]: 0.7 nm
- IC50, luciferase reporter cells, 12 pM MfIL-25-MMH [2]: 3.9e-11 M
- IC50, luciferase reporter cells, 5 pM hIL-25-MMH [3]: 1.4e-10 M
- 100 nM Mouse IL-25-MMH Bound (RU) [4]: 1 RU
- 100 nM Rat IL-25-MMH Bound (RU) [5]: 0 RU
- 100 nM Rat IL-25-MMH Bound (RU) [6]: 0 RU
- IC50 [7]: 200 pM
- 100 nM Mouse IL-25-MMH Bound (RU) [8]: 0 RU
- 100 nM Monkey IL-25-MMH Bound (RU) [9]: 72 RU
- Kd [9]: 23.9 pM
- koff [9]: 4.18e-05 s⁻¹
- kon [9]: 1.75e+06 M⁻¹ s⁻¹
- t½ [9]: 4.6 h
- % Maximum blocking of 200 nM antibody [10]: 93%

B2: H4H10862P (antibody, human IgG4, V domains shown)
VH: QVQLQESGPGLVKPSETLSLTCTVSGGSISSYFWSWIRQAPGKGLEWIGFIDYSGSTNYNPSLKSRVTISVDTSKNQFSLKLNSVTAADTAVYYCARQEIINFELNWFDPWGQGTLVTVSS
VL: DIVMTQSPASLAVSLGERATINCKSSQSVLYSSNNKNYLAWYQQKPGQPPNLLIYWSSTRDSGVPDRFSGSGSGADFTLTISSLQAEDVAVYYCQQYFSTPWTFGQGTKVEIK
notes: H4H prefix = human IgG4 Fc
- 50 ug/mL mAb-1 Binding (nm) [1]: 0.83 nm
- IC50, luciferase reporter cells, 12 pM MfIL-25-MMH [2]: 3.3e-11 M
- IC50, luciferase reporter cells, 5 pM hIL-25-MMH [3]: 8.4e-11 M
- 100 nM Mouse IL-25-MMH Bound (RU) [4]: 2 RU
- 100 nM Rat IL-25-MMH Bound (RU) [5]: 1 RU
- 100 nM Rat IL-25-MMH Bound (RU) [6]: 1 RU
- binding result [6]: no binding (tested: 100 nM)
- IC50 [7]: 240 pM
- 100 nM Mouse IL-25-MMH Bound (RU) [8]: 0 RU
- binding result [8]: no binding (tested: 100 nM)
- 100 nM Monkey IL-25-MMH Bound (RU) [9]: 70 RU
- Kd [9]: 58.9 pM
- koff [9]: 0.000172 s⁻¹
- kon [9]: 2.93e+06 M⁻¹ s⁻¹
- t½ [9]: 1.12 h
- % Maximum blocking of 200 nM antibody [10]: 89%

B3: H2aM11008N (antibody, V domains shown)
VH: QVQLQESGPGLVKPSETLSLTCTVSGGSISSHYWSWIRQPPGKGLEWIGFIYYSGSTNFNPSLKSRVTISIDTSKNQFSLKLSSVTAADTAVYYCARHDYNDYELNYFDLWGRGTLASVSS
VL: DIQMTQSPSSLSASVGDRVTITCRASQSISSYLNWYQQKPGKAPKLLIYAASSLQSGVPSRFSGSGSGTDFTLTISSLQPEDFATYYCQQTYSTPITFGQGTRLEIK
notes: also called H2M11008N
- 50 ug/mL mAb-1 Binding (nm) [1]: 0.81 nm
- IC50, luciferase reporter cells, 5 pM hIL-25-MMH [3]: 1.8e-09 M
- 100 nM Mouse IL-25-MMH Bound (RU) [4]: 2 RU
- 100 nM Rat IL-25-MMH Bound (RU) [5]: 3 RU
- 100 nM Rat IL-25-MMH Bound (RU) [6]: 0 RU
- binding result [6]: no binding (tested: 100 nM)
- IC50 [7]: 430 pM
- 100 nM Mouse IL-25-MMH Bound (RU) [8]: -1 RU
- % Maximum blocking of 200 nM antibody [10]: 98%

B4: H4H10861P (antibody, human IgG4, V domains shown)
VH: QVQLQESGPGLVKPSETLSLTCTVSGASISNYYWSWIRQPPGKGLEWIGYIFYSGNTNYNPSLKSRVTISVDTSKNQFSLKLSSVTAADTAVYYCARVRFSDYELNWFDPWGQGTLVTVSS
VL: DIVMTQSPDSLAVFLGERATINCRSSQSVFLGSNNKNYLAWYQQKPGQPPKLLIYWASSRESGVPDRFSGSGSGTDFTLTINSLQAEDVAVYYCQQYFITPLTFGGGTKVEIK
notes: H4H prefix = human IgG4 Fc
- 50 ug/mL mAb-1 Binding (nm) [1]: 0.88 nm
- IC50, luciferase reporter cells, 12 pM MfIL-25-MMH [2]: 3.7e-11 M
- IC50, luciferase reporter cells, 5 pM hIL-25-MMH [3]: 6.3e-11 M
- 100 nM Mouse IL-25-MMH Bound (RU) [4]: 2 RU
- 100 nM Rat IL-25-MMH Bound (RU) [5]: 2 RU
- 100 nM Rat IL-25-MMH Bound (RU) [6]: 0 RU
- binding result [6]: no binding (tested: 100 nM)
- IC50 [7]: 200 pM
- 100 nM Mouse IL-25-MMH Bound (RU) [8]: 0 RU
- binding result [8]: no binding (tested: 100 nM)
- 100 nM Monkey IL-25-MMH Bound (RU) [9]: 61 RU
- Kd [9]: 23.6 pM
- koff [9]: 7.14e-05 s⁻¹
- kon [9]: 3.03e+06 M⁻¹ s⁻¹
- t½ [9]: 2.7 h
- % Maximum blocking of 200 nM antibody [10]: 92%
